Measured values as given in PMC5915598, “Structural basis for the activation of acid ceramidase” (Nature Communications, 2018).

Target: T1, human acid ceramidase (aCDase, ASAH1) β-subunit (human, UniProt Q13510 143-395, N-glycosylated (insect cell glycans); disulfide C340 to C31 of the α-subunit; disulfide C388/C392)
T1 construct: acid ceramidase, human, UniProt Q13510; the construct spans residues 22-395 and autocleaves before Cys 143, which becomes the N terminus of the β-subunit: residues 143-395; Made as one chain with the α-subunit and set free by autocleavage; also called 30 kDa β-subunit
T1 sequence (looked up): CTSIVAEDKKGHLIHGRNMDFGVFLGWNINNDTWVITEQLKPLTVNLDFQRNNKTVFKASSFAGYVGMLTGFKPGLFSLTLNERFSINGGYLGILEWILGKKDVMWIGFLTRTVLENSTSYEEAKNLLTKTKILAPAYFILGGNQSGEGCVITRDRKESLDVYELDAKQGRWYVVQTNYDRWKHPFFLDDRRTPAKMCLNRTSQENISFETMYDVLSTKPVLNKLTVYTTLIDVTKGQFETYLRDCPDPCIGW
Assay: crystal structure; autocleaved human aCDase, incubated with 1 mM ceranib-2 and 1 mM Triton X-100, crystallised at 22 °C in 100 mM sodium phosphate-citrate pH 4.3, 200 mM Li2SO4, 20% PEG 1000; the two subunits come from one chain and are also linked by a disulfide
Conditions: both partners purified

binding result: binds
B1: human acid ceramidase (aCDase, ASAH1) α-subunit (domain or fragment, UniProt Q13510 22-142, looked up)
chain: QHAPPWTEDCRKSTYPPSGPTYRGAVPWYTINLDLPPYKRWHELMLDKAPVLKVIVNSLKNMINTFVPSGKVMQVVDEKLPGLLGNFPGPFEEEMKGIAAVTDIPLGEIISFNIFYELFTI
modifications: N-glycosylated (insect cell glycans); disulfide C31 to C340 of the β-subunit
notes: acid ceramidase, human, UniProt Q13510 variant Ile93Val; the construct spans residues 22-395 and autocleaves at the peptide bond between Ile 142 and Cys 143, so the α-subunit is residues 22-142; no removal of the tag is told; Residues 141 and 142 are disordered in the structure; also called 13 kDa α-subunit
